The values that follow come from patent publication CN113549147A.

For this assay, the target named is 柯萨奇A6型病毒(CVA6)病毒颗粒抗原, 毒株TW-2007-00141 (Coxsackievirus A6 (CVA6), strain TW-2007-00141). The assay can be described thus: cell-based or functional assay.

Changes are numbered by the printed parent chain.

B1: 单克隆抗体6C8 (antibody, V domains shown)
VH: EVQLQQSGPELVRPGASVRISCKASGYSFTGYYMHWVKQSHVKSLEWIGRINPHNGVPNYNQNFKDKATLTVDKSSTTAYMELHSLTSEDSAVYFCVSGSSDFDYWGRGATLTVS
VL: DIQMTQSPSSLSASLGERVTLTCRASQEIGAFLGWLQQKPDGIIKRLIYAASVLDSGVPKRFSGSRSGSDYSLTISSLESEDFADYYCLQYVSFPRTFGGGTKLEIK
B1: the 中和效价 (最大稀释倍数 (可以抑制50%以上细胞孔病变)) was determined as 4096.

B2: 单克隆抗体2B5 (antibody, V domains shown)
VH: EVHLQQSGPELVKPGSSVKISCKASGYSFTGYYIHWVKQNHLKSLTWVGRINPHNGVADYDQILRGRAALTVDKSSTTAYLEFHSLTYEDSAVYFCVSGSNDFDYWGQGTPLTVS
VL: B1 VL with T20S, G30R, A31S, I43T, A51V, V53N, V92I
B2 registered a 中和效价 (最大稀释倍数 (可以抑制50%以上细胞孔病变)) of 4096.

B3: 单克隆抗体4D6 (antibody, V domains shown)
VH: EVQLQQSGPELVKPGASVKISCKASGYSFTGYYMHWVKQSHEKSLEWVGRINPHNGVADYNQILKGKAALTVDKSSTTAYMEFHSLTSEDSAVYYCVSGSSDFDYWGQGTPLTVS
VL: B1 VL with T20S, G30R, A31S, I43T, A51V, V53N, V92I
For the molecule B3, the 中和效价 (最大稀释倍数 (可以抑制50%以上细胞孔病变)) is 8192.
